From US20210145976A1 (ARO BIOTHERAPEUTICS, published 2021) come the findings set out here.

Positions count from the first letter of the chain named.

B1: SEQ ID NO 84 (designed binder)
chain: MLPAPKNLVVSRVTEDSARLSWTAPDAAFDSFPIYYWEVFPAGEAIELDVPGSERSYDLTGLKPGTEYFVRIEGVKGGASSYPLRAEFTT
notes: FN3 domain
B2: SEQ ID NO 99 (designed binder)
chain: MLPAPKNLVVSRVTEDSARLSWTAPDAAFDSFGIQYNEFVFRGEAIVLTVPGSERSYDLTGLKPGTEYFVPISGVKGGDDSRPLSAIFTT
notes: FN3 domain
B3: SEQ ID NO 107 (designed binder)
chain: B2 chain with G33F, N37T, F39S, V40H, F41W, R42V, F69A, S73E, D80S, R82T
notes: FN3 domain
B4: SEQ ID NO 91 (designed binder)
chain: MLPAPKNLVVSRVTEDSARLSWTAPDAAFDSFVIEYWERTQPGEAIVLTVPGSERSYDLTGLKPGTEYDVWISGVKGGKWSEPLSAIFTT
notes: FN3 domain
B5: SEQ ID NO 81 (designed binder)
chain: MLPAPKNLVVSRVTEDSARLSWTAPDAAFDSFVIEYREGAWYGEAIVLTVPGSERSYDLTGLKPGTEYAVYIPGVKGGPRSFPLSAIFTT
notes: FN3 domain
B6: SEQ ID NO 143 (designed binder)
chain: MLPAPKNLVVSRVTEDSARLSWTAPDAAFDSFHIAYEEADSEGEAIYLRVPGSERSYDLTGLKPGTEYSVNIQGVKGGIVSFPLHAEFTT
notes: FN3 domain
B7: SEQ ID NO 130 (designed binder)
chain: MLPAPKNLVVSRVTEDSARLSWTAPDAAFDSFHIPYVEAEVPGEAIQLHVPGSERSYDLTGLKPGTEYYVEIWGVKGGFYSPPLIAEFTT
notes: FN3 domain
B8: SEQ ID NO 102 (designed binder)
chain: MLPAPKNLVVSRVTEDSARLSWTAPDAAFDSFSIDYDEPQPVGEAIVLTVPGSERSYDLTGLKPGTEYRVDIWGVKGGPTSGPLRATFTT
notes: FN3 domain
B9: SEQ ID NO 213 (designed binder)
chain: B8 chain with S33W, D35Y, D37W, P39I, Q40E, P41R, V42A, V47R, T49D
notes: FN3 domain
B10: SEQ ID NO 306 (designed binder)
chain: MLPAPKNLVVSRVTEDSARLSWTAPDAAFDSFYIEYFETQGYGEAIVLTVPGSERSYDLTGLKPGTEYYVAIYGVKGGYLSRPLSAIFTT
notes: FN3 domain
B11: SEQ ID NO 103 (designed binder)
chain: B10 chain with P3L, Y33A, T39Y, Q40T, Y42E, A71G
notes: FN3 domain
B12: SEQ ID NO 129 (designed binder)
chain: B10 chain with Y33D, F37Y, T39A, Q40V, Y42A, Y69T, A71G, Y79W, R82K, A86V
notes: FN3 domain
B13: SEQ ID NO 100 (designed binder)
chain: B10 chain with Y33W, F37W, T39V, Q40V, Y42F, Y69W, A71G, Y79N, L80P, R82V
notes: FN3 domain
B14: SEQ ID NO 97 (designed binder)
chain: MLPAPKNLVVSRVTEDSARLSWTAPDAAFDSFFISYFEGWASGEAIHLYVPGSERSYDLTGLKPGTEYSVHIQGVKGGQPSTPLSAIFTT
notes: FN3 domain
B15: SEQ ID NO 106 (designed binder)
chain: MLPAPKNLVVSRVTEDSARLSWTAPDAAFDSFTIAYEEHGLVGEAIYLRVPGSERSYDLTGLKPGTEYHVGIMGVKGGVFSSPLSAIFTT
notes: FN3 domain
B16: SEQ ID NO 109 (designed binder)
chain: B15 chain with T33H, H39L, G40V, L41T, V42E, H69L, G71D, M73E, V79H, F80L
notes: FN3 domain
B17: SEQ ID NO 162 (designed binder)
chain: MLPAPKNLVVSRVTEDSARLSWTAPDAAFDSFHIAYEEATTYGEAIFLRVPGSERSYDLTGLKPGTEYDVWIEGVKGGTISGPLSAIFTT
notes: FN3 domain
B18: SEQ ID NO 220 (designed binder)
chain: MLPAPKNLVVSRVTEDSARLSWTAPDAAFDSFHIIYEEDGTEGEAIYLRVPGSERSYDLTGLKPGTEYEVDIEGVKGGVLSWPLFAEFTT
notes: FN3 domain
B19: SEQ ID NO 89 (designed binder)
chain: MLPAPKNLVVSRVTEDSARLSWTAPDAAFDSFHISYEETPVVGEAIYLRVPGSERSYDLTGLKPGTEYTVAIHGVKGGRESTPLIAPFTT
notes: FN3 domain
B20: SEQ ID NO 148 (designed binder)
chain: MLPAPKNLVVSRVTEDSARLSWTAPDAAFDSFHIEYEEQYSTGEAIYLRVPGSERSYDLTGLKPGTEYHVDIEGVKGGRRSFPLNAFFTT
notes: FN3 domain
B21: SEQ ID NO 121 (designed binder)
chain: MLPAPKNLVVSRVTEDSARLSWTAPDAAFDSFSIDYPEFPVRGEAIVLTVPGSERSYDLTGPKPGTEYNVTIQGVKGGFPSMPLSAIFTT
notes: FN3 domain
B22: SEQ ID NO 124 (designed binder)
chain: B21 chain with P62L, N69A, Q73W, P80T, M82Q
notes: FN3 domain
B23: SEQ ID NO 140 (designed binder)
chain: B21 chain with S33W, D35S, P37E, F39S, P40D, V41T, R42E, V47Y, T49R, P62L
notes: FN3 domain
B24: SEQ ID NO 142 (designed binder)
chain: B17 chain with E15K, D69E, W71K, E73H, T79A, I80D, G82K, S85V, I87P
notes: FN3 domain
B25: SEQ ID NO 87 (designed binder)
chain: MLPAPKNLVVSRVTEDSARLSWTAPDAAFDSFAIEYYEPVPAGEAIYLDVPGSERSYDLTGLKPGTEYDVTIYGVKGGYYSHPLFASFTT
notes: FN3 domain
B26: SEQ ID NO 119 (designed binder)
chain: MLPAPKNLVVSRVTEDSARLSWTAPDAAFDSFHIEYEETPQKGEAIFLRVPGSERSYDLTGLKPGTEYVVNIRGVKGGDLSSPLGALFTT
notes: FN3 domain
B27: SEQ ID NO 128 (designed binder)
chain: MLPAPKNLVVSRVTEDSARLSWTAPDAAFDSFIINYIEIVQYGEAIVLTVPGSERSYDLTGLKPGTEYPESIWGVKGGGASSPLSAIFTT
notes: FN3 domain
B28: SEQ ID NO 126 (designed binder)
chain: MLPAPKNLVVSRVTEDSARLSWTAPDAAFDSFSIDYLELGESGEAIVLTVPGSERSYDLTGLKPGTEYWVYIFGVKGGYPSAPLSAIFTT
notes: FN3 domain
B29: SEQ ID NO 139 (designed binder)
chain: B28 chain with S33D, D35S, L37W, L39S, E41K, S42Y, R55S, W69L, Y71D, A82E
notes: FN3 domain
B30: SEQ ID NO 113 (designed binder)
chain: MLPAPKNLVVSRVTEDSARLSWTAPDAAFDSFDIHYKEHSWWGEAIVLTVPGSERSYDLTGLKPGTEYIVPIPGVKGGGISRPLSAIFTT
notes: FN3 domain
B31: SEQ ID NO 127 (designed binder)
chain: MLPAPKNLVVSRVTEDSARLSWTAPDAAFDSFPIPYGESPPSGEAIVLTVPGSERSYDLTGLKPGTEYVVIIRGVKGGGRSGPLSAISTT
notes: FN3 domain
B32: SEQ ID NO 120 (designed binder)
chain: MLPAPKNLVVSRVTEDSARLSWTAPDAAFDSFRIEYIEWWVGGEAIVLTVPGSERSYDLTGLKPGTEYWVDIKGVKGGKRSYPLSAIFTT
notes: FN3 domain
B33: SEQ ID NO 94 (designed binder)
chain: MLPAPKNLVVSRITEDSARLSWTAPDAAFDSFGIYYYEWWSTGEAIVLTVPGSERSYDLTGPKPGTEYYVKISGVKGGYRSYPLSAIFTT
notes: FN3 domain
B34: SEQ ID NO 111 (designed binder)
chain: MLPAPKNLVVSRVTEDSARLSWTAPDAAFDSFWIYYYESVGTGEAIVLTVPGSERSYDLTGLKPGTEYFVDISGVKVGTYSLPLSAIFTT
notes: FN3 domain

The target of one assay is T1, recombinant biotinylated CD71 extracellular domain (Sino Biologics) with an N-terminal 6His tag (human, UniProt P02786 89-760, biotinylated (sites not given)).
T1 construct: extracellular domain; also called hCD71; huCD71
T1 sequence (P02786 other isoform, or with tags, fused parts or gaps): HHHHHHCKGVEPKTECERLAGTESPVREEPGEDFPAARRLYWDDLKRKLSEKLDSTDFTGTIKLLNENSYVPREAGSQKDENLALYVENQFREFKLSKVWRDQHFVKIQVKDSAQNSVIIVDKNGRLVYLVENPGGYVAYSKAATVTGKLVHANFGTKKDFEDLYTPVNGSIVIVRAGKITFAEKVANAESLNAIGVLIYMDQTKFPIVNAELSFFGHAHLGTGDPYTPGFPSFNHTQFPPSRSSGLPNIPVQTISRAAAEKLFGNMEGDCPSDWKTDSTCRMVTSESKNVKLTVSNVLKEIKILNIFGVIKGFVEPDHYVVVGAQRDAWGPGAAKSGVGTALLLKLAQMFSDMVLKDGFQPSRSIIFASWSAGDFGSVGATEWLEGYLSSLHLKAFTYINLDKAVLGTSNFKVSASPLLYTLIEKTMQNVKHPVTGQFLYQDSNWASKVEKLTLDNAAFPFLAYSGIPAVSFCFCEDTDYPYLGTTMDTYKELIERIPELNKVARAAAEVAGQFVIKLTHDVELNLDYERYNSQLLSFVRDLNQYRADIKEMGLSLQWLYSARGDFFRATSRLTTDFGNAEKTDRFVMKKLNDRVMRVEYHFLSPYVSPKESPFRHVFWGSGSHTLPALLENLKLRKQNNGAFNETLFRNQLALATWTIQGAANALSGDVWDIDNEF
Nature of the assay: screening ELISA. For orientation: An ELISA detects its analyte on a solid surface through an enzyme-linked reagent.
Turning to B1, the hCD71 was 1.73e+06.

Take B2: the hCD71 came to 853000.

As for B3, the hCD71 stood at 420000.

Turning to B4, the hCD71 amounted to 1.44e+06.

For B5, the hCD71 was 537000.

In the case of B6, the hCD71 amounted to 3.94e+06.

As for B7, the hCD71 worked out at 1.45e+06.

For the molecule B8, the hCD71 was found to be 3.48e+06.

For the molecule B9, the hCD71 was 2.11e+06.

As for B10, the hCD71 was determined as 4.07e+06.

Turning to B11, the hCD71 came to 4.83e+06.

Take B12: the hCD71 amounted to 2.31e+06.

Turning to B13, the hCD71 was 2.95e+06.

For the molecule B14, the hCD71 was 2.41e+06.

On to B15, for which the hCD71 amounted to 594000.

For the molecule B16, the hCD71 was found to be 4.83e+06.

B17: the hCD71 stood at 3.88e+06.

On to B18, for which the hCD71 is 4.25e+06.

As for B19, the hCD71 stood at 3.44e+06.

B20: the hCD71 was 3.98e+06.

Consider B21, for which the hCD71 worked out at 2.37e+06.

Regarding B22, the hCD71 was determined as 605000.

Turning to B23, the hCD71 was found to be 4.18e+06.

B24: the hCD71 came to 3.41e+06.

For the molecule B25, the hCD71 amounted to 2.83e+06.

For the molecule B26, the hCD71 turned out to be 3.16e+06.

Take B27: the hCD71 came out at 664000.

Turning to B28, the hCD71 stood at 4.49e+06.

B29: the hCD71 worked out at 3.03e+06.

Consider B30, for which the hCD71 came out at 2.14e+06.

As to B31, the hCD71 turned out to be 3.56e+06.

In the case of B32, the hCD71 amounted to 3.64e+06.

In the case of B33, the hCD71 turned out to be 439000.

Regarding B34, the hCD71 amounted to 2.4e+06.

The target of a further assay is T1, recombinant biotinylated CD71 …. The assay can be described thus: screening ELISA, ratio.
With B1, the “hCD71:HSA” value was 449.

Consider B2, for which the “hCD71:HSA” value amounted to 105.

Consider B3, for which the “hCD71:HSA” value amounted to 104.

As for B4, the “hCD71:HSA” value amounted to 800.

On to B5, for which the “hCD71:HSA” value turned out to be 19.

As for B6, the “hCD71:HSA” value was 426.

Consider B7, for which the “hCD71:HSA” value is 239.

With B8, the “hCD71:HSA” value worked out at 258.

With B9, the “hCD71:HSA” value was found to be 215.

On to B10, for which the “hCD71:HSA” value stood at 1810.

Regarding B11, the “hCD71:HSA” value worked out at 4020.

B12: the “hCD71:HSA” value turned out to be 1540.

In the case of B13, the “hCD71:HSA” value was 1260.

Regarding B14, the “hCD71:HSA” value was 1090.

B15: the “hCD71:HSA” value was 495.

With B16, the “hCD71:HSA” value came out at 3860.

As to B17, the “hCD71:HSA” value turned out to be 2100.

As to B18, the “hCD71:HSA” value is 452.

Turning to B19, the “hCD71:HSA” value turned out to be 1720.

Turning to B20, the “hCD71:HSA” value was 1990.

Turning to B21, the “hCD71:HSA” value was 83.

Regarding B22, the “hCD71:HSA” value is 175.

For B23, the “hCD71:HSA” value was found to be 2610.

As to B24, the “hCD71:HSA” value was determined as 1000.

As to B25, the “hCD71:HSA” value was 2580.

Take B26: the “hCD71:HSA” value turned out to be 1710.

Turning to B27, the “hCD71:HSA” value was 204.

Turning to B28, the “hCD71:HSA” value stood at 2570.

As for B29, the “hCD71:HSA” value came to 1440.

B30: the “hCD71:HSA” value was 95.

As for B31, the “hCD71:HSA” value was determined as 38.

As to B32, the “hCD71:HSA” value amounted to 1970.

In the case of B33, the “hCD71:HSA” value was 44.

As to B34, the “hCD71:HSA” value was determined as 322.
